± gives the standard deviation of the averaged measurements.
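Note: ATP exposure 15 min at 22 °C before imaging.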

The subject of this data set is ATP. The data set is described as follows: switch fluorescence ratio, 500 uM ATP over buffer (Cy3 cluster intensity, sum of 5 cycles each) (fold (ratio)); higher = stronger signal-on switching upon ATP binding; sequences stand for … in TCGTCGGCAGCGTCAGATGTGTATAAGAGACAGTTTTTTTTTTTTTTTTTTTTTTTTT…TC. The conditions noted are these: aptamer strand: ATP DNA aptamer (quencher-CACCTGGGGGAGTATTGCGGAGGAAGG + anchor), 100 nM annealed; ATP concentration: 500 uM. Put shortly:
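Values give the fluorescence ratio for each switch-domain sequence, averaged from per-cluster ratios of summed target-cycle to summed buffer-cycle Cy3 intensity. The Cy3-labelled switching-strand clusters sat on a modified Illumina MiSeq flow-cell, were annealed to 100 nM quencher-labelled ATP aptamer, and were imaged in selection buffer, then after 15 min with 500 uM ATP at 22 °C. Five cycles ran with NaOH stripping and re-annealing between them, and clusters outside 100-1000 RFU were excluded.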
Take TTTGGCTCTG: the switch fluorescence ratio worked out at 1.03 ± 0.025.
With GCAAGGGTAT the figure was 1.01 ± 0.025.
Regarding GGTATTTTTA, the switch fluorescence ratio amounted to 0.9758 ± 0.0046.
Regarding CTTAGGACAG, the switch fluorescence ratio was 1.01 ± 0.035.
With GCGACTAGGT, the switch fluorescence ratio worked out at 1.03 ± 0.028.
As to ATTGAGTAA, the switch fluorescence ratio is 0.976 ± 0.025.
Regarding CGCTTGTGTT, the switch fluorescence ratio worked out at 0.9821 ± 0.0015.
To TTTCTGTGCG belongs 1.001 ± 0.0072; to TGGGTGTCGT, 1.02 ± 0.081.
For the sequence AATCGGGCGC, the switch fluorescence ratio was determined as 1.01 ± 0.048.
To TACGGTGGGT belongs 0.982 ± 0.032; to ACAGGGTTAC, 0.991 ± 0.027; to ATTATTTTTT, 1.02 ± 0.046.
To CCGAGATTGC belongs 1.95 ± 0.14; to CGGCCCGTAG, 1.02 ± 0.036.
For the sequence AAATTGATAT, the switch fluorescence ratio worked out at 1.02 ± 0.025.
As to GGATTGATTA, the switch fluorescence ratio stood at 1.01 ± 0.032.
With CGGGAGTTCG, the switch fluorescence ratio worked out at 0.992 ± 0.077.
On to GATTAAATAG, for which the switch fluorescence ratio worked out at 0.9988 ± 0.0032.
On to AGTGTGAGTT, for which the switch fluorescence ratio stood at 1.025 ± 0.01.
Regarding GTCGGTGTTG, the switch fluorescence ratio stood at 0.98952 ± 0.00042.
In the case of TTTGGAATTG, the switch fluorescence ratio amounted to 0.988 ± 0.016.
On to ATTCCTCGAC, for which the switch fluorescence ratio came to 1.67 ± 0.11.
On to TGGGGGTTTA, for which the switch fluorescence ratio was found to be 1.03 ± 0.019.
With GTATTAGGGT, the switch fluorescence ratio amounted to 1 ± 0.041.
To AAAGATGGGA belongs 1.003 ± 0.0081; to GGATTTTTGG, 0.989 ± 0.036; to AAAAGAAAAG, 1.01 ± 0.051.
In the case of TGTTAGGGGG, the switch fluorescence ratio worked out at 1.01 ± 0.014.
For GTTATTGGTA, the switch fluorescence ratio was determined as 1.01 ± 0.018.
To TAATTGGCAA belongs 1.004 ± 0.0017; to TTTAATTACT, 1.04 ± 0.037; to TCGGTCAAAT, 0.977 ± 0.011.
For the sequence AACCCTTTGC, the switch fluorescence ratio worked out at 1.04 ± 0.016.
As to TCAGGGTGAA, the switch fluorescence ratio stood at 1.02 ± 0.041.
Consider ATTGTTTTTG, for which the switch fluorescence ratio was 1.01 ± 0.026.
With AGTTTTGAGG the figure was 1.001 ± 0.0016; with GCTGATCTTA, 0.998 ± 0.034.
Consider TAAAGGAAGG, for which the switch fluorescence ratio turned out to be 0.9801 ± 0.0066.
As to CAGTCGGTTT, the switch fluorescence ratio turned out to be 1.013 ± 0.0088.
Take AACGGGGTCT: the switch fluorescence ratio was 0.978 ± 0.011.
For the sequence GGAGGGCTCG, the switch fluorescence ratio stood at 0.981 ± 0.043.
For GTCGCAAGGG, the switch fluorescence ratio is 1.15 ± 0.021.
TAGGGGTTGG: the switch fluorescence ratio is 0.987 ± 0.03.
Regarding GGGAAAAAAC, the switch fluorescence ratio stood at 1.013 ± 0.0064.
As for AAGTACTAGC, the switch fluorescence ratio was 1.212 ± 0.0086.
Regarding TGGAGGGTTG, the switch fluorescence ratio was determined as 1 ± 0.026.
Take CAGTTTACCG: the switch fluorescence ratio is 1.03 ± 0.019.
Consider AAACTAAGAA, for which the switch fluorescence ratio was found to be 1 ± 0.016.
For the sequence GGGGCAGCTG, the switch fluorescence ratio was 1.06 ± 0.08.
Consider CGGTGGGTGT, for which the switch fluorescence ratio was 0.931 ± 0.011.
To GTTTGCTCCC belongs 1.15 ± 0.086.
To TGGCTGGGGG belongs 1.09 ± 0.1; to TCAGGCTAAC, 1.01 ± 0.011; to ACTTGGTTGG, 0.9869 ± 0.00088.
In the case of TTTAGTGTGC, the switch fluorescence ratio was 1.01 ± 0.03.
With GGATTAGTCA the figure was 0.9973 ± 0.0047.
Regarding TATACGGGGA, the switch fluorescence ratio amounted to 1.01 ± 0.021.
To TTCATTGGTT belongs 0.998 ± 0.038; to GGGAGGTGTT, 1.037 ± 0.009; to CGCGCGGGCT, 0.998 ± 0.051.
TGGGCAGGGT: the switch fluorescence ratio came out at 1.02 ± 0.016.
With CATCGAGATG, the switch fluorescence ratio turned out to be 1.01 ± 0.014.
As to AATTCCGATA, the switch fluorescence ratio amounted to 1.02 ± 0.026.
In the case of AGGTGCTGGG, the switch fluorescence ratio turned out to be 1.03 ± 0.013.
With ATGTTTTTTC the figure was 0.977 ± 0.037; with AGCCTCTATA, 1.012 ± 0.0066.
With AAAGGGGGC, the switch fluorescence ratio was determined as 0.974 ± 0.067.
Take GGAATCGGGC: the switch fluorescence ratio was 0.9487 ± 0.0014.
Turning to TAGGTAGGTT, the switch fluorescence ratio was 1.015 ± 0.0086.
With TTCCGGGCTA the figure was 1.47 ± 0.62.
With CTTACTCTTT the figure was 1.0258 ± 0.00043.
With GGTTTGAGAA, the switch fluorescence ratio was determined as 1.018 ± 0.0031.
For the sequence ACCAGTGCTG, the switch fluorescence ratio worked out at 1 ± 0.04.
As to AGAATGATCG, the switch fluorescence ratio came out at 0.994 ± 0.033.
Turning to TCGTGTACTG, the switch fluorescence ratio came out at 1.041 ± 0.006.
For the sequence CATATGCGTA, the switch fluorescence ratio turned out to be 0.9857 ± 0.0015.
For the sequence GCTGTGTGTC, the switch fluorescence ratio turned out to be 1.006 ± 0.0024.
Regarding AGGTTCAAAG, the switch fluorescence ratio was 0.959 ± 0.037.

(Values after the supplement of paper PMC10126150.)
